B1: TPR t1 (parent)
chain: GACCAAUCUGCCCUCAGAGCUCGAGAACAUCUUCGGAUGCAGAGGAGGCAGGCUUCGGUGGCGCGAUAGCGCCAACGUCCUCAACCUCCAAUGCAUCCCACCACAUGAUGAUGCCUGAAGAGCCUUGGUUUUUUG

Variants of: B1
Test: polymerase ribozyme fitness, log enrichment relative to wild type (log ratio); higher = more active; in vitro selection for triplet polymerase activity
Method in brief: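 Genotype fitness is the logarithm of its enrichment divided by wild-type enrichment, using inverse-variance-weighted averages of replicates. That logarithm is base 2. Enrichment was measured by Illumina sequencing of input and output libraries from one triplicate in vitro selection round, with frozen incubation at −7 °C, on PCR-built, transcribed mutant libraries of each subunit of a heterodimeric triplet polymerase ribozyme, retaining genotypes with ≥10 input reads and ≥1 read per output.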

Variant | polymerase ribozyme fitness (log ratio)
G10C C64U A121U U131A | 1.16
G10A A27G C76U C94A | -5.09
U9G G65C A121U | -4.76
G10A C11A G42U G48A A91G C115U | -2.2
G10A C20U C97G C123U | -3.15
G10C G71U | -1.91
U9G G61A C80A A95C G110U C115A A119C | -7.18
U9G G113U | -1.66
U9G G113C | -1.34
G10C C49G G61A U112A A118U | 1.17
G10C G57C | -0.669
G10C C13G C94A | -0.274
G10A A29U G110A | -2.97
G10C C49G U55G C94A | -3.2
G10A G71C U81A A100C | -4.69
G10C G69U C79G C80U | -2.66
G10U A26C A74G A90U G120A | -5.63
G10C U106C G127A G135U | -3.46
U9G U116A | -0.815
G10A A24G | -1.53
G10A G19U | -3.62

Variant | polymerase ribozyme fitness (log ratio)
G10C G60U A118G | -1.45
G10A A18U A118U | -1.34
G10U A29U C53G | -2.58
U9G G65C | -5.24
G10C C34U A43U C101G G107C | -7.66
G10A C88A C123U | 1.69
G10C C34U | -5.43
G10C C49G U81C G120C | -4.69
U9G G93C A100U A118G | -1.35
G10U A37U C102G C115A | -6.5
G10A G48U G52A G77U | -2.41
G10C G60U C82A U96A G107U A119U | -6.51
G10A C11A A18C G42C G44A C101A | -4.26
G10C C49A G51C G57C C72U | -4.25
G10C A24U C53A G63C G117C G128A | -5.7
G10A C53A C72U C79A U96G | -1.55
U9G U32C U59A U131A | -0.0228
G10A C34U G77A | -5.24
G10A U59A C62A C89G | -5.2
G10C A50G G69U C89A A121U | 0.925
G10C A29C G61C C123U U125A G135A | -4.26

Variant | polymerase ribozyme fitness (log ratio)
G10A G45A | -1.2
G10A G45C | -0.489
G10A G17C C34A G47U C72G C80U C124A | -7.1
G10C C49A G51C G57C C72U C115G | -3.99
G10A C72G U96A C104U | -0.61
G10A C56U C94G | -0.664
U9G G63U G128C | -3.23
U9G G71A | -0.592
U9G G120U | 1.06
G10C C62A U78C | -1.58
U9G G69U | 0.642
G10A A74G A90U G107U C115U | -7.83
G10A G45C C56G C72U | -2.53
G10C A41U A50G | -1.93
G10A C15G A16G G63A C80U G113C | -4.34
U9G U78C C79G G110A | -2.65
G10A A29G G113A U130A | -3.73
G10C A66U C97U G120U C123U | 0.489
G10U A46C C70G C94U U133A G135U | -4.06
G10A C56U | 0.385
G10A C12U U14C C56G G63C G117U U129A | -3.92

Variant | polymerase ribozyme fitness (log ratio)
G10C U96G C97U G120C G135U | -5.98
U9G U54A G69C U129C | -2.97
G10C C20A A29C G58U G60A C85U | -6.83
G10C A108C C114G | -5.74
U9G G77A | 0.17
G10A G61A C94U | -0.166
G10C C12A A83C C124G | 1.04
G10A G44U U92G C115A | -3.73
G10A C40A C72U C76A C99A | -7.55
G10C G128C | -3.1
G10A C86U U112A | 1.32
G10C G36U A50C U78G C86A | -4.45
G10C C40G | -1.34
G10A G47U A83G | -2.7
G10C A24G A46C C86G | -3.81
G10A G42A A43U C64U | -1.45
G10C G42C C123A G128A | -2.91
G10A G19A A74U | -3.32
U9G U38C A46C U59C A66U U81A | -5.6
G10A C40A A50U U78A | -4.41

— the RNAGym collection of RNA variant scans (doi:10.1073/pnas.2313332121)
